Experiment: yeast display, Sf9 membrane polyspecificity reagent, FACS + sequencing; frameworks hold sequencing errors
Procedure, shortened: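 Galactose induction of a Saccharomyces cerevisiae BJ5465 synthetic nanobody display library ran 36–48 hours. The cells were then stained for 1 hour at 4 °C with 10% biotinylated, detergent-solubilized Sf9 membrane reagent, pulled down on streptavidin microbeads and FACS-sorted into low and high (top ~1%) gates on expression and reagent-binding fluorescence. Labels for polyreactivity follow the gate of origin.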

Row | Sequence | polyreactivity (PSR sort gate)
1 | QVQLVESGGGLLQAGGSLRLSCAASGSIFPQYAMGWYRPAPGKERELVAAITWSGSRTRYADSVKGRFTISRDNAKNTVYLQMNSLKPEDTAVYYCNAYWGRSGYAGGYWGQGTQVTVSS | high polyreactivity
2 | QLQLVESGGGLVQAGGSLRLSCAASGSTFYLYDLGWYIQAPGKESELVAAITSSGGSTYYADSVKGRFTISLDNAKNTVYLQMTSLKPEDTAVYYCAARYRGWVYSYDYWGQGTQVTVSS | low polyreactivity
3 | QVQLVESGGGLVQAGGSLRLSCAASGLIFRHYAMGWYRQAPGKERELVAAIDYSGGSTYYADSVKGRFTISRDNAKNTVYLQMNSQKPEDTAVYYCAADYFWMYYSEYGYWGQGTQVTVSS | low polyreactivity
4 | QVQLVESGGGLVQAGGSLRLSCAASGVIFEYTAMGGYRQAPGKERELVAAITSSGGSTYYADSVKGRFTISRDKAKNTVYLQMNSLKPEDTAVYYCARVRRSAYYQDYYSWGQGTQVTVSS | high polyreactivity
5 | QVQLVESGGGLVQAGGSLRLSCAASGRTFVNYTMGWYRQAPGKEWELVAAIRYRDGSTYYADSVKGRFTISRDYAKNTVYLQMNSLKPEDTAVYYCNTRITQVGDYIYDYWGQGTQVTVSS | low polyreactivity
6 | QVQLVESGGGLVQAGGSLRLSCAASGSTFNKNAMGWYRQAPGNERELVAVISRSGGSTHYADSVKGRFTISRDNAKNTVYLQMNSLKPEDTAVYYCATPFSYRRRTSASPYLYDYWGQGTQVTVSS | high polyreactivity
7 | HVQLVESGGGFVQAGGSLRLSCASYGSIFSGYAMGSYRQAPAKERELVAAISNTGSTNYADSVKGRFTISRDNAKYNVYLQMNSLKPEDTAVYYCNASYSYGEMDYWGQGTQVTVSS | low polyreactivity
8 | QVQLVESGGGLVQAGCSLRLSCAASGIIYINYAMGWYRQAPGKERELVAVITRGGSTYYADSVKGRFTISRDNAKNTVYLLMNSLKPEDTAVYYCNARYLSWWTGRFNYWGQGTQVTVSS | high polyreactivity
9 | QVQLVESGGGLVQAGGSLRLSCAASGFTFTANAMGWYRQAPGKERELVAAITRNGGRTYYADSVKGRFTLSRDNAKNNVYLQMNSLKPEDTAVYYCAKPNSQRIHDDYDYWGQGTQVTVSS | high polyreactivity
10 | QVHLVESGGGLVQAGGSLRLSCAASGRIFVTYAMGWYRQAPGKERELVAAIPWDGDSTYYADSVKGRFTFSRDNAKNTVYLQMNSLKREDTAVYYCNAKKFNSHVELGYDYWGQGTQVTVSS | low polyreactivity
11 | QVHLVESGGGLVQAGGSLRLSCAASGRIFKTYAMRWYRQAPGKERELVAAITASGGRTYDADSVKGRFTISRDNAKNTVYLQMNSLTPEDSAVYYCAAPLLRDLRSPYYYNYWGQGTQVTVSS | low polyreactivity
12 | QVQLVESGGGLVQAGGSLRLTCAATGRIFSRYAMGWYRQAPGKERELVAAISRSGGSTYYADSVKGRFTISRDNAKNTVYFQMNSLKPEDTAVYYCAARNVFSYPPGSYYYWGQGTQVTVSS | high polyreactivity
13 | QVQLVESGGGLVQAGGSLRLSCAASGSTFAYNDMGWYRQAPGKETELVADIRSGGNTNYADSVKGRFTISRDNAKNTVYLQMNSLKPEDTAVYYCATDGYRFDVYHPDYRYDYWGQGTQVTVSS | low polyreactivity
14 | QVQLVESGGGLVQVGGSLRLSCAASGSILTDYGMGWNRPAPGKERELVAVIDFSSGSTYYADSVKGRFTISRDNAKNTVYLQMNSLKPEDTAVYYCAAGPDPLGEDYWGQGTQVTVSS | low polyreactivity
15 | QVQLVESGGGLVQAGGSLRLSCAASGYTFDTNVMGWYRQEPGKERELVATITGSGGSTYYADSVKGRFTISRDNAKNTVYLEMNSLKPEDTAVYYCAAYCYRYSFHWLKRWPYDWGQGTQVTVSS | high polyreactivity
16 | QVQLVESGGSLVQAGGSLRLSCAASGRIFYYNAMGWYRQAPGKERELVAAISWSGGSTYYADSVKGRFTISRDNAKNTVYLQMNSLKPEDTAVYYCAVDVYGYTPRPTREPLIYEYWGQGTQVTVSS | low polyreactivity
17 | QVQLVESGGGLVQAGGSLRLSCAASGSIFDYNAMGWYRQAPGKERELVAAITSGTSTNYADSVKGRFTISRDNAKNTVYLQMNSLKPEDTAVYYCAADPVWAYDYWGQGTQVTVSS | low polyreactivity
18 | QVQLVESGGGLVQAGGSLRLSCAASGRISYAYAMGRYRQAPGKERELVAAISGSGGSTYYADSVKWRFTISRDNAKNTVYFQMNTLKPEDTAVYYCAAGSGEYYGGKRYYWGQGTQVTVSS | low polyreactivity
19 | QVQLVESGGGLVQAGGSLRLSCAASGSTFWFNAMGWYRQAPGKERELVAAISGRGGNTYYADSVKGRFTISRVNAKNTVYLQMYSLKPEDTAVYYCNAVYLYAYRVRYYYGRYDYWGQGTQVTVSS | high polyreactivity
20 | QVQLVESGGGLVQAGGSLRLSCAASGRIFVLYAMGWYRQAPGKERELVADITFDGGSTYYADSVKGRFTISRDNAKNTVYLQMNSLKPEDTAVSFCAARYRWSRKRYNDYDYWGQGTQVSVSS | high polyreactivity
21 | QVQLVESGGGLVQAGGSLRISCAASGSIFYRNVMGWYRQAPGKERELVAAISSSGGRTHYADSVKGRFTISRDNAKNTVYLQMNSLKPEDTAVYYCTALYAPQEYGRRFPNDYWGQGTQVTVSS | high polyreactivity
22 | QVQLVESGGGLVQAGGSLRLSCAASGSIFVRNAMGWYRQAPGKERELVAADSVKGRFTISRDNAKNTVYLQMNSLKPEDTAVYYCNKDYIIRRGPIVYYGFDYWGQGTQVTVSS | low polyreactivity

Row | Sequence | polyreactivity (PSR sort gate)
23 | QVQLVESGGGLVQAGGSLRLSCAASGYTFSHYDMGWYRQAPGKERELVAGITWSGGSTYYADSVKGRFTISRDNAKNTVYLQMNSLIPEDTSVYYCAAKYYWYYSYSGIPLFDYWGQGTQVTVSS | low polyreactivity
24 | QVQLVESGGGLVQAGGSLRLSCAASGRTFRVYAMGWYRQAPGKEREFVAAISYSGGRTYYADSVKGRFTISRDNAKNTVYLQMKSLKPEDTAVYYCAKRVPYGRGVTGYYWGQGTQVTVSS | high polyreactivity
25 | QVQLVESGGGLVQAGGSLRLSCAASGLTFRRYDMGWYRQAPGKERELVAAITGGGSTYYADSVKGRFTISRDNAKNTVYLQMNSLKPEDTAVYYCAAGTWYWSYAYDYWGQGTQVTVSS | high polyreactivity
26 | QVQLVESGGGLVEAGGSLRLSCDASGRIFYSNAMGWSRQAPGKERELVATITRSSGITYYADSVKGRFTISRDNAKNTVYLQMNSLKPEDTAVYYCAAPWYYYGYWGQGTQVTVSS | high polyreactivity
27 | QVQLVESGGGLVQAGGTLRLSCAASGYIFDRNAMGWYRPAPGKERELVAAITKRGGSTYYADSVKGRFTISRDNAKNTVYLQMNSLKPEETAVYYCNALARSSRYDYWGQGTQVTVSS | low polyreactivity
28 | QVQLVESGGGLVQAGGSLRLSCAASGRIFDGNAMGWYRQAPWKERELVAAINRSGGRTYYADSVKGRFTISRDNAKNTVYLQMNSLKPEDTAVYYCATPYAGGTPADPGYDYWGQGTQVTVSS | high polyreactivity
29 | QVQLVESGGGLVQAGGSLRLSCAASGFIFGWYGMGWDRQARGKERELVAAITWSGVRTYYADSVKGRFTISRDNAKNTVYLQMNSLKPEDTAVYYCARAGGYVGRGYKDQDGRGDYWGQGTQVTVSS | high polyreactivity
30 | QVQLVESGGGLVQAGGSLRLSCAASGSNFYDYAMGWYRQAPGKERELVAAISSGGGTYYADSVKGRFTISRDNAKNTVYLQMNSLKPEDTAVYYCNADTYEWFSDFSEDSYDYWGQGTQVTVSS | low polyreactivity
31 | QVQLVESGGGLVQAGGSLRLSCAASGFTFKYYAMGWYRQAPGKERELVAAITKRGGSTYYADSVKGRFTISRDNAKNTVYLQMNSLKPEDTEVYYCAAYYKSTYVPGDYWGQGTQVTVSS | high polyreactivity
32 | QVQLVESGGGLVQAGGSLRLSCAASGSTFRQYAMGWYRQAPGKERELVAAITWRGDNTYYADSVKGRFTISRDNAKNTVYLQMNSLKPEDTAVYYCAARWSYRLYWGYGYWGQGTQVTLSS | low polyreactivity
33 | QVQLVESGGGLVQAGGSLRLSCAASGSTFYGYVMGWYRQAPGKERELVAAITWRGTSTYYADSVKGRFTISRDNAKNTVYLQMNSLKPEDTAVYYCRGYYDRDVDYWGQGTQVTVSS | high polyreactivity
34 | QVQLVESGGGLVQAGGSLRLSCAASGSIFNRYAIGWYRQAPGKERELFAAISSTGSTYYADSVKGRFTISRDNAKKTVYLQMNRLKPEDTAVYYCNADVLALAPYDYWGQGTQVNVSS | low polyreactivity
35 | QVQLVESGGGLVQAGGSLRLSCAASGFIFSWNAMGWYRQAPGKERELVAGISWSGGSTYYADSVKGRFTISRDNAKNTVYLQMNSLKPEDTAVYYCAKEPSVGTGGVYRYGRGDYWGQGTQVTVSS | low polyreactivity
36 | QVQLVESGGGLVQAGGSLRLSCPAYGSTFGEYAMGWYRQKPGKERELVATITSAGSTYYADSVKGRFTISRDNAKNTVYLLMNSLKPEDTAVYYCAVDPISQGHMDYWGQGTQVTVSS | low polyreactivity
37 | QVQLVESGGGLVQAGGSLSLICAAYGTTFEYYAMRWYRQAPGKERELVATISIDGRTNYADSVKGRFTISRDNAKNTVYLQMISLKPEDTAVYYCAARPYWRHRYDYWGQGTQVTVSS | low polyreactivity
38 | QVQLQESGGGMVQAGGSLRLSCAASGYISWADYMGWYRQAPGKERELVAGIGYGSTTYYADSVKGRFTISRDNAKNTAYLQMNSLKPEDTAVYYCNADVRYGRDHWGQGTQVTVSS | low polyreactivity
39 | QVQLVESVGGLVQAGGSLRLSCAATRSIFKIMRWYRQAPGKERELVAAISSSVGNTYYADSVKGRFTISRDNAKNTVYLQMNSLKPEDTAVYYCAAQSKYYQYYSWGQGTQVTVSS | high polyreactivity
40 | QVQLVESGGGLVQAGGSLRLSCAASGSIFKVNAMGWYRQAPGKERELVAAISGNTDTTYYADSVKGRFTISRDNAKNTVYLQMNSLKPEDTAVYYCAADAYIKYYFRWINMYYWGQGTQVTVSS | high polyreactivity
41 | QVQLVESGGGLVQAGGSLRLSCAASGSTFTYYAMGWYRQAPGKERELVAAIDFSGTSTYYADSVKGRFTISRDNAKNTVYLQMNSLQPEDTAVYYCAASQSWYWGGAQDNGEFGYWGQGTQVTVSS | low polyreactivity
42 | QGQLVESGGGLVQAGGSLRLSCAASGSIFTFYTLGWYREAPGKVRELVAAINWSGSRTYYAASVKGRFTISRDNAKNTVYLQMNSLKPEDTAVYYCNAAIRYDWYQVLWNFSRESNYWGQGTQVTVSS | high polyreactivity
43 | QVQLVESGGGLVQAGGSLRLSCAASGSTFFYNAMGWYIQAPGKERELVAAITVTGTSTYYADSVKGRFTISRDNAKNTVYLQMNSLKPEDTGVYYCNTSLKRRRLRFNYWGQGTQVTVSS | low polyreactivity

— the nanobody polyreactivity screen of Harvey et al. (2022)
